# Data as given in US6365372.
# Target: Gal-CBP1-2441 chimera (yeast) (UniProt P45481)
# Assay: cell-based or functional assay
substance,measurement,value
SRCAP1275-2971 (from UniProt Q6ZRS2 1534-3230),ability of Gal-CBP to activate transcription of pGal-CAT,2.5 fold
